# Source: the RNAGym collection of RNA variant scans (doi:10.1073/pnas.2313332121)
# Fewer inactive variants are shown than the library holds.
# B1: TPR 5TU (parent)
# chain: GGAUCUUCUCGAUCUAACAAAAAAGACAAAUCUGCCACAAAGCUUGAGAGCAUCUUCGGAUGCAGAGGCGGCAGCCUUCGGUGGCGCGAUAGCGCCAACGUUCUCAACUAUGACACGCAAAACGCGUGCUCCGUUGAAUGGAGUUUAUCAUG
# Variants of: B1
# Assay: polymerase ribozyme fitness, log enrichment relative to wild type (log ratio); higher = more active; in vitro selection for triplet polymerase activity
# Method in brief: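 Only genotypes with ≥10 input reads and ≥1 read per output were kept after Illumina sequencing of input and output libraries. These libraries were PCR-built, transcribed mutants of each subunit of a heterodimeric triplet polymerase ribozyme, each put through one triplicate in vitro selection round with frozen incubation at −7 °C, gel excision of extended constructs, streptavidin-bead capture and RT-PCR. Fitness is a logarithmic ratio of genotype enrichment to wild-type enrichment, from inverse-variance-weighted replicate averages, with the logarithm in base 2.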
row,Variant,polymerase ribozyme fitness (log ratio)
1,G59A G133U G136C U148C,≤ -4.2
2,A60G C85A U101G,-2.94
3,U61A C69U A98U,-2.9
4,G58C A89U C95A G126U,-0.892
5,G59C A119U C149U,-0.775
6,G59C C96U A106G C132U U145C,-0.905
7,G58A C76U U101G,0.481
8,G59U A106G C114U,-1.65
9,A60G A91G,-2.73
10,G59C U77A C96G C105U G140A,≤ -4.2
11,U61G C93G A98U A138C,≤ -4.2
12,C57U A97U,-1.22
13,G59A C76G,≤ -4.2
14,G58U G86A,-1.55
15,G59C C76A C87G,≤ -4.2
16,G58C C96U A150G,-0.919
17,A60C A91U,≤ -4.2
18,U61A A107C G128U U139A,≤ -4.2
19,G59U C85G A119U G128A,-4.19
20,U61A G74A C76U C87A C108U A142U,≤ -4.2
21,A60G C85U U144G,0.543
22,C57U C95A U109G,-0.696
23,A60C A73U,-3.54
24,G59U C87G C95U U101G C149G,≤ -4.2

row,Variant,polymerase ribozyme fitness (log ratio)
1,A60G A119C A120U U151C,-4.18
2,G58C C85U G117U,-0.00983
3,C57U C118G U145C,-0.881
4,A60G G74A,-3.26
5,G59A C103A A107U A110U U111A C118A A138G,≤ -4.2
6,G58A C79U,-1.65
7,C57G U101A,0.403
8,U61A C76U U102G U109C,≤ -4.2
9,A60C G92U,-0.296
10,G58A C99U,-0.207
11,G58A C87G A142C,≤ -4.2
12,G58C C85G U90A U139A G140U,≤ -4.2
13,G58C G84U A97U,-3.58
14,A60G G100A U151G,≤ -4.2
15,G59C C87A U101C G141U A147U,≤ -4.2
16,G58U C76A,0.0806
17,G58U C105U U134A A137U U144A,≤ -4.2
18,G59C C87U U102G C132U U145G,≤ -4.2
19,G59U G86U,-3.85
20,A60G A73G C85A,-2.02
21,A60U C93A,-3.06
22,A60C A120U A137C G140U,≤ -4.2
23,G59C G86U,-1.67
24,G59C A138G,-3.04

row,Variant,polymerase ribozyme fitness (log ratio)
1,G58A U61A C87A G117A,≤ -4.2
2,U61G C85A G143C,-3.43
3,G58A C87G C116A A147C U151A,≤ -4.2
4,G58A A73G G88C A150U,≤ -4.2
5,G59C A60C C87G,≤ -4.2
6,C57U C69A G84U A121C,-2.25
7,U61A A73G G94U,-3
8,A60C A91U C93G A122C,≤ -4.2
9,G58C A150U,1.46
10,G59A G94A,-0.522
11,C57U G126A A138U,-3.43
12,A60G G143U,-1.77
13,U61A C63U C85G A119U C131A,≤ -4.2
14,G58A C93A G112C,-4.12
15,U61A A73G C93U C125A,-3.14
16,A60G C96U,0.674
17,C57U G83A C99A,-2.32
18,G58C C95U,-0.651
19,G59U A60U,-0.703
20,G58C C72U A98G,0.461
21,A60G U90A C95A G117A,-3.93
22,G59C C87G,≤ -4.2
23,C57U C85U U146G,-1.44
24,A60G C87A U109A C132G,≤ -4.2

row,Variant,polymerase ribozyme fitness (log ratio)
1,G59A A107U G126A,-3.68
2,G58C A97U,-0.712
3,G59U C93A,-3.58
4,G59U A107C A121U,-3.86
5,G59A U61C,-0.735
6,G59A C76G G80C C116G C118G,≤ -4.2
7,A60G G88C A106U U134A G140C G143C,≤ -4.2
8,G59U G80A,-0.046
9,U61A A98U U134G G140U U145A,≤ -4.2
10,G58C C72A A110C A147G A150C,≤ -4.2
11,U61A A89C A107U G117U U144G U151A,≤ -4.2
12,C57U A91U,-3.95
13,U61A C76A,-3.6
14,G59A A60C G126A,-0.62
15,A60C C93A A98U A122C,-2.61
16,G58C C76G U77G,≤ -4.2
17,U61G C85A G133C,-3.52
18,A60C U61A C69G G74A U146G A150C,≤ -4.2
19,C57G U82A G83U G141U,-1.49
20,G58C C76A G83U,-2.66
21,G58C A73G C85G,-2.21
22,A60U G86A,-2.78
23,G58U G86A C87A,≤ -4.2
24,G58A C85G,-2.86

row,Variant,polymerase ribozyme fitness (log ratio)
1,G59C C95G C103U G126A,-2.28
2,A60U C87U,-1.36
3,G59A C87U,-1.42
4,C57U G83U,-1.72
5,G59U A97C,-0.238
6,U61C C87A,≤ -4.2
7,G58U G59U U82A G84A A115U G143A,≤ -4.2
8,A60G A110G G136A,-2.56
9,C57U C96G,-0.76
10,C57U C96U,-0.201
11,C57U C96U C103U G117U G136A G141U,≤ -4.2
12,G59C A60G C85A,-1.88
13,C57U C85U C87U U144G,-0.0249
14,G58C C85A,-3.71
15,G58A C95U G143C,-1.9
16,U61A C103G A115U,≤ -4.2
17,C57G G117U G124C,-1.64
18,G59U A64G A89G A107C,≤ -4.2
19,G59C U61A A64C,≤ -4.2
20,A60U C85G G92C U102G,≤ -4.2
21,G59U C103U,-0.503
22,A60U C76A A120U,-1.94
23,C57U G124U G128U,-3.76
24,C57U C76U A98G,-0.421

row,Variant,polymerase ribozyme fitness (log ratio)
1,A60G C96A A121U,-0.437
2,G58U C95A C149U,-0.828
3,A60U C85U,-1.46
4,A60U C85A,-3.04
5,A60U C85G,-3.14
6,C57U C95G A120G G143A,-2.18
7,A60C C76U G80C G117U C123A,≤ -4.2
8,G59C C69U C93G G100A G124U,≤ -4.2
9,A60U A64C A89U C116G G133C A147C U148C,≤ -4.2
10,G58A U61G,-1.49
11,G58A G83A C87U U101G G141C,-3.39
12,A60C C85A G124C,-2.54
13,G59A A64U C85A G92A U144C,≤ -4.2
14,C57G G140C,-4.08
15,C57G G124U U148G,≤ -4.2
16,G58C A60G G67A C69A G92U G112A G143C,≤ -4.2
17,G59C G94C,-0.253
18,G59A C85G C99U A120G,≤ -4.2
19,C57U C75A G88C G133U,≤ -4.2
20,G59C C85G A89U G92A,≤ -4.2
21,G58U C95U,-0.414
22,G59C G67A U78G C79A C87A G143A,≤ -4.2
23,G58A A107U G126U C149G,≤ -4.2
24,U61A C79A G83C,≤ -4.2

row,Variant,polymerase ribozyme fitness (log ratio)
1,G59C A73G C85A,-2.84
2,G58A U90A C125G,≤ -4.2
3,U61A C99G,-3.23
4,A60C C99G U101G,≤ -4.2
5,G58A G59A C96A,0.0408
6,G58U G92A,-2.51
7,G59U C96U A121C G126A U146G,-2.76
8,G59C C85G,-1.64
9,A60G C85A,-0.96
10,G58A G84A U104G G126U,-0.778
11,C57U G86A C99G,-3.33
12,A60C G65U C132A,-4.19
13,A60G C96U U101G G128A,-3.75
14,A60G C116A,1.26
15,G58C A66C G67A A89C U111C C116A C129G U148A,≤ -4.2
16,G59U A120G,-0.485
17,G59C A60U,0.153
18,G59A G62A G86U A107C,≤ -4.2
19,G58A U104A,0.105
20,G58U A60G A137C,≤ -4.2
21,G58U G83C,-0.165
22,G58C G126U U145G,-3.82
23,G59C G126C,0.783
